Test results taken from the supplement of paper PMC9112550, “Optimization of the antimicrobial peptide Bac7 by deep mutational scanning” (BMC Biology, 2022).

test system: Escherichia coli TOP10; assay: shrunken log2 fold change of peptide-encoding DNA abundance (4.5 h post-induction vs induction); higher = less antimicrobial activity (less host growth inhibition); settings: time post-induction: 4.5 h; library: site-saturation at positions 5, 18, 19, 20
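Note: peptides expressed intracellularly from a pBAD plasmid library in pooled LB shake-flask culture, induced with 0.3% L-arabinose, DNA abundance read by NGS, three biological replicates, DESeq2 with apeglm shrinkage.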

Sequence | shrunken log2 fold change
RRIRVRPPRLPRPRPRPSNWPRP | -0.331
RRIRVRPPRLPRPRPRPHAPPRP | 0.26
RRIRVRPPRLPRPRPRPAHKPRP | -0.0968
RRIRIRPPRLPRPRPRPYFHPRP | -0.835
RRIRGRPPRLPRPRPRPVELPRP | 0.354
RRIRKRPPRLPRPRPRPRSVPRP | 0.402
RRIRARPPRLPRPRPRPALKPRP | 0.825
RRIRSRPPRLPRPRPRPHCPPRP | -0.0154
RRIRWRPPRLPRPRPRPRRSPRP | 0.492
RRIRARPPRLPRPRPRPGQIPRP | 0.216
RRIRPRPPRLPRPRPRPRVGPRP | 0.543
RRIRLRPPRLPRPRPRPWRLPRP | 0.0799
RRIRWRPPRLPRPRPRPNWMPRP | -0.11
RRIRERPPRLPRPRPRPNKIPRP | -0.642
RRIRCRPPRLPRPRPRPDTFPRP | 0.0257
RRIRNRPPRLPRPRPRPNLYPRP | -0.515
RRIRKRPPRLPRPRPRPRTFPRP | 0.243
RRIRRRPPRLPRPRPRPKRFPRP | 0.305
RRIRKRPPRLPRPRPRPHDPPRP | 0.282
RRIRQRPPRLPRPRPRPRSHPRP | 0.183
RRIRCRPPRLPRPRPRPGQNPRP | 0.261
RRIRHRPPRLPRPRPRPIYFPRP | -0.123
RRIRERPPRLPRPRPRPEYKPRP | -0.471
RRIRTRPPRLPRPRPRPDMMPRP | -0.182
RRIRARPPRLPRPRPRPMFSPRP | -0.142

Sequence | shrunken log2 fold change
RRIRRRPPRLPRPRPRPLNHPRP | -0.0852
RRIRGRPPRLPRPRPRPCNGPRP | -0.199
RRIRQRPPRLPRPRPRPALMPRP | 0.0376
RRIRSRPPRLPRPRPRPFSTPRP | -0.372
RRIRNRPPRLPRPRPRPFFRPRP | -0.378
RRIRHRPPRLPRPRPRPGSPPRP | -0.171
RRIRTRPPRLPRPRPRPVCKPRP | -0.0432
RRIRFRPPRLPRPRPRPPRRPRP | 0.826
RRIRRRPPRLPRPRPRPNYPPRP | 0.0594
RRIRLRPPRLPRPRPRPEGVPRP | 0.568
RRIRMRPPRLPRPRPRPVWPPRP | 1.07
RRIRIRPPRLPRPRPRPSWSPRP | -0.458
RRIRERPPRLPRPRPRPPEHPRP | 0.114
RRIRTRPPRLPRPRPRPHQCPRP | 0.021
RRIRRRPPRLPRPRPRPLSHPRP | 0.0117
RRIRSRPPRLPRPRPRPNNIPRP | -0.564
RRIRARPPRLPRPRPRPWCMPRP | -0.223
RRIRVRPPRLPRPRPRPMIMPRP | -0.126
RRIRERPPRLPRPRPRPFRGPRP | -0.11
RRIRPRPPRLPRPRPRPFLRPRP | -0.327
RRIRERPPRLPRPRPRPMQGPRP | -0.0783
RRIRWRPPRLPRPRPRPIKEPRP | 0.0169
RRIRTRPPRLPRPRPRPCGVPRP | -0.175
RRIRRRPPRLPRPRPRPYLNPRP | -1.13
RRIRRRPPRLPRPRPRPHHFPRP | -0.196

Sequence | shrunken log2 fold change
RRIRLRPPRLPRPRPRPNQKPRP | -0.0744
RRIRCRPPRLPRPRPRPFKNPRP | -0.967
RRIRSRPPRLPRPRPRPSEGPRP | -0.559
RRIRGRPPRLPRPRPRPQKWPRP | 0.0681
RRIRGRPPRLPRPRPRPRDPPRP | 1.32
RRIRERPPRLPRPRPRPKDCPRP | 0.033
RRIRFRPPRLPRPRPRPEPHPRP | 0.258
RRIRPRPPRLPRPRPRPYQSPRP | -0.194
RRIRHRPPRLPRPRPRPDFTPRP | -0.0849
RRIRIRPPRLPRPRPRPWASPRP | 0.00397
RRIRHRPPRLPRPRPRPNYNPRP | -0.89
RRIRWRPPRLPRPRPRPAAKPRP | 0.482
RRIRSRPPRLPRPRPRPSTCPRP | 0.0296
RRIRYRPPRLPRPRPRPVKYPRP | -0.135
RRIRLRPPRLPRPRPRPKCLPRP | 0.117
RRIRKRPPRLPRPRPRPWMDPRP | 0.0169
RRIRNRPPRLPRPRPRPAWDPRP | 0.151
RRIRDRPPRLPRPRPRPAWEPRP | 1.07
RRIRSRPPRLPRPRPRPRHVPRP | -0.0732
RRIRERPPRLPRPRPRPQECPRP | -0.399
RRIRLRPPRLPRPRPRPFKFPRP | -0.202
RRIRNRPPRLPRPRPRPFWIPRP | 0.0948
RRIRWRPPRLPRPRPRPIVWPRP | -0.0161
RRIRGRPPRLPRPRPRPLNCPRP | -0.0116
RRIRGRPPRLPRPRPRPHWTPRP | 0.00915

Sequence | shrunken log2 fold change
RRIRYRPPRLPRPRPRPTPQPRP | 0.161
RRIRIRPPRLPRPRPRPPNGPRP | -0.291
RRIRHRPPRLPRPRPRPKFTPRP | -0.219
RRIRYRPPRLPRPRPRPMTHPRP | -0.348
RRIRERPPRLPRPRPRPHVVPRP | -0.162
RRIRSRPPRLPRPRPRPIVTPRP | -0.192
RRIRKRPPRLPRPRPRPIPKPRP | 0.499
RRIRMRPPRLPRPRPRPLRRPRP | 1.94
RRIRDRPPRLPRPRPRPWANPRP | 0.0419
RRIRARPPRLPRPRPRPYQSPRP | -0.0285
RRIRERPPRLPRPRPRPQLWPRP | 0.116
RRIRDRPPRLPRPRPRPFNMPRP | -0.186
RRIRARPPRLPRPRPRPMFCPRP | 0.211
RRIRERPPRLPRPRPRPDQLPRP | -0.248
RRIRVRPPRLPRPRPRPVAQPRP | 0.247
RRIRVRPPRLPRPRPRPQVWPRP | 0.345
RRIRERPPRLPRPRPRPLWVPRP | -0.109
RRIRWRPPRLPRPRPRPPHKPRP | 0.339
RRIRGRPPRLPRPRPRPWKDPRP | 0.000655
RRIRGRPPRLPRPRPRPTHYPRP | 0.525
RRIRERPPRLPRPRPRPNNKPRP | -0.849
RRIRERPPRLPRPRPRPDTGPRP | -0.161
RRIRWRPPRLPRPRPRPKIAPRP | 0.41
RRIRKRPPRLPRPRPRPTAHPRP | 0.513
RRIRIRPPRLPRPRPRPMCPPRP | -0.0137

Sequence | shrunken log2 fold change
RRIRHRPPRLPRPRPRPFPTPRP | -0.0427
RRIRQRPPRLPRPRPRPPFFPRP | 0.249
RRIRRRPPRLPRPRPRPWVIPRP | -0.125
RRIRCRPPRLPRPRPRPTDDPRP | 2.22
RRIRDRPPRLPRPRPRPIICPRP | -0.0435
RRIRHRPPRLPRPRPRPKMEPRP | -0.00674
RRIRNRPPRLPRPRPRPYYQPRP | -0.697
RRIRTRPPRLPRPRPRPEQPPRP | 0.309
RRIRARPPRLPRPRPRPFGGPRP | 0.0726
RRIRDRPPRLPRPRPRPLCPPRP | -0.00491
RRIRPRPPRLPRPRPRPSIYPRP | -0.584
RRIRGRPPRLPRPRPRPFYAPRP | 0.0161
RRIRLRPPRLPRPRPRPYGHPRP | 2.49
RRIRMRPPRLPRPRPRPVSMPRP | 0.382
RRIRGRPPRLPRPRPRPKLRPRP | 0.675
RRIRIRPPRLPRPRPRPAVKPRP | -0.0893
RRIRSRPPRLPRPRPRPHSCPRP | -0.0203
RRIRWRPPRLPRPRPRPVSMPRP | -0.00416
RRIRRRPPRLPRPRPRPITRPRP | 0.0299
RRIRCRPPRLPRPRPRPDVNPRP | -0.281
RRIRIRPPRLPRPRPRPQSPPRP | 0.0218
RRIRVRPPRLPRPRPRPSENPRP | 0.0175
RRIRCRPPRLPRPRPRPVIIPRP | -1.28
RRIRDRPPRLPRPRPRPHVQPRP | -0.0912
RRIRWRPPRLPRPRPRPWDAPRP | 0.22

Sequence | shrunken log2 fold change
RRIRLRPPRLPRPRPRPHEEPRP | 0.13
RRIRERPPRLPRPRPRPWADPRP | -0.00088
RRIRDRPPRLPRPRPRPNASPRP | 0.527
RRIRNRPPRLPRPRPRPSCAPRP | -0.0999
RRIRLRPPRLPRPRPRPSWSPRP | 0.0192
RRIRCRPPRLPRPRPRPRSMPRP | -0.0145
RRIRKRPPRLPRPRPRPLNHPRP | -0.0528
RRIRPRPPRLPRPRPRPCYIPRP | -0.795
RRIRNRPPRLPRPRPRPFKYPRP | -0.133
RRIRQRPPRLPRPRPRPVRCPRP | 0.841
RRIRPRPPRLPRPRPRPSCEPRP | -0.386
RRIRCRPPRLPRPRPRPTADPRP | 0.363
RRIRRRPPRLPRPRPRPSLWPRP | 0.293
RRIRKRPPRLPRPRPRPDDHPRP | 0.0199
RRIRVRPPRLPRPRPRPPSLPRP | 1.99
RRIRVRPPRLPRPRPRPRSKPRP | -0.108
RRIRCRPPRLPRPRPRPNKKPRP | 0.0294
RRIRIRPPRLPRPRPRPCVMPRP | -0.106
RRIRSRPPRLPRPRPRPQIRPRP | 0.267
RRIRPRPPRLPRPRPRPGMAPRP | 0.204
RRIRARPPRLPRPRPRPITPPRP | -0.0533
RRIRQRPPRLPRPRPRPMYKPRP | -0.0194
RRIRKRPPRLPRPRPRPSRRPRP | 0.337
RRIRNRPPRLPRPRPRPWFYPRP | -0.154
RRIRHRPPRLPRPRPRPFWQPRP | 0.0187
